The supplement of paper PMC12636428

System: Saccharomyces cerevisiae
Test: transcriptional activation domain activity (GFP:mCherry ratio, weighted mean of sorted bins, harmonized to initial dataset scale) (arbitrary fluorescence ratio units); higher = stronger transcriptional activation
Conditions: beta-estradiol 1 µM; induction time 4 h
How it was run: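 Values are activation activity, found as the read-weighted mean of bin median fluorescence, averaged across barcodes and then mapped linearly onto the initial dataset scale. Barcoded protein tiles fused to an estradiol-inducible synthetic transcription factor were integrated at the URA3 locus of GFP-reporter yeast diploids. Cells were induced for 4 hours at 30 °C with 1 uM beta-estradiol in SC, sorted into 8 bins by GFP:mCherry ratio, and barcode-sequenced, with tiles under 50 reads discarded.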

Sequence | transcriptional activation domain activity
FILGYYWGDARLFGLSVRFMSLFSWFRVVHRVLPRLLPMRFKGPGKYVVTYDA | 58500
FRCLFLLFLLFSLICCRAISLQKHCLCLTYASSTALFVIVFILLLFWYLIIIT | 76100
IGFVDFPFSSCSFLLGYFCYSVFLCFPFLFLVFFGVIYMWSSRGFLVQSFTMI | 70800
PADDPQPAPATPKRRGRPPKNPKPAEEPKPAEEDPQPVPATTPKKRGRPPKAS | 26100
RYNHLFDETLVAICVLLGRIGGRFIVDDFEVMWCHNLFRTKVVKAIVVFALAY | 39600
IMCQWVKNLKERLLKMPPALRICLADHVLKFVIPKLHILGHLKLCQELFSLLY | 47100
VAAAAAETERAAEAERVAEAGRREEAEGTTDTGKTETGRREEADGTAGAAKAA | 24800
RIFGLQSPQLVYVESMARVRKLSLSGKILRLLVDRFFVQWEALADGKTGSRWW | 61100
MKACLRCLVFLLGCTSPWCFTRYLALEHFTLFWIDADLWWQVYRFSILVLLSY | 44400
IFAFGYWLEESGKLLRLDLFTRFYAWGRIVLPRVGDAMIFYWENDTFGIRRGF | 69000
EGGADGEEEEDGEEEVKEKVPAKRGRKPRGERVEEVSSPAAPVRGKKAKPTTA | 41200
LEEAEDGGGALADGEIEVRVAATGVTVDDARAAAGLRAGYTVGTECSGTVARV | 11500
MGTLYPLVLPWFTGSYFLDIGIDFVFQKDTSYLGYILHTLHAPFLLSCLFLVL | 65000
VSFRLLVYALVSHVIFGIVLLIDCFYAFPGWHCSLLAFLINFNILFSASIFFC | 55200
WIVTHSHFIPTAEAGTTGEGMGEGEDRDPDTVRLAVRSLTICMRSANIAMLVG | 53600
GAGGAMGAALKHAVRDLAALSTAVSGAWVVEAITSSCSRRSIAVLVSRALAAM | 42000
MDSRPGSFATGVFRAQPVDNTPRKIQKRNRPPVSCLLCRTRKVKCNRQQPCER | 33500
MFYKLLIIYCFLFFRIYFLFHFFSYIYFFFFLFSISNFVISLPSNLFSHLLFF | 47000
RRSKHSSRSHRSRRHRDRSVSDENGTERRHKSERRHKHRHRSRSGGSRERRHT | 47200
KLRGYGFVCQMLQLPIVVLQRTKWVRGRETLNNVCFWASMILGLSLVRCLFPL | 50200
MPVLPYFFAKFIIDIPRIVIGGSMFSLALVVFFPYQQPFVRMYGMVIILYFYS | 51200

Sequence | transcriptional activation domain activity
MSHPYRGERVHLQVGQNIWIVALIVLVQIFSTVRSNPGCSLLVSMTAKFWCPR | 63800
PIGIFFFFPFVWLFRVFIFLCISYCCFLVPYVCSRGSSFFWLPVSTLFLSFLF | 45000
QENHNSSENGNENENEQDSLALDDLDRAFELVEGMDMDWMMPSHAHHSPATTA | 123000
VVHLLSPKRLDILWGVNPKGIHIFRMVLFISLLFSYLGRSGSLMLSIARIFTY | 45900
LINYLLVLLVFRKWLKGHQVPLFVIMSYAWTRQLSFMDNVRRTNKRATLAMLR | 57200
CLIVARVVTVVFPFNFCFYFFVERILISVPVVCVCEVCVLEWCVWLRFLFACA | 32000
APKDESEAPKPAEEDSPSKRKKAEEVKIEKKEETPARPEPQHTQPKQPAAKAK | 10100
QGAAKAVFEPHFSQKDDEGNIIKKKFAVACRVRNCTKLDRMTVISALAAAVGQ | 46500
RQLFIRGRMQTIMLDCFLELCYRGACSLSSFEHPINWFEAPSDCLIWIRRMMY | 36600
MLMHASPRMPIVQIFFFIFIHLSPPPFPFFFSLILSHRYSISFFLSLFSLLYF | 35800
EVSIDGVQTVTYCGRDALPEHDKVTEVGWVLDRGILKLGVLYLWLNCRHMCVT | 65400
QESVYIEVISYIGLIFDWFWYYILMNLSVFIWLACMYYTIFLYGFLEAYFPEK | 33000
ARVQVNFWFFLFVYYGFYNLTALMWITKVFNLYSLNWWPSTMGFPLTITLIAI | 55300
MPVGIVLQLIAAVQYHLYTAMLFTWTDYKTIFFPYLLKCCLWVWVHQLLCNVS | 56900
GAEAGAAVPGKRRNRRGRRGKKKKPGLANGAANGDGVEREDGENGEGEVPKEE | 52100
MSGQLPAGAPRASPADASPTGPRAPTSSRPACLSCHTHKKRCVWKSAAPGTPC | 69400
DLFVSLMANSLTKLGFVPGATVDMKKLTIDIVELIFRWERRRMTGSPSIKPAD | 45200
AVPGEVTEAEANGETDKAEGAAPAEGDAEKPKKKKKKSAKKPKSTGAEGEAAE | 24700
LAEVILLPDLCGFCCFSMRFVVLLDLIGTLTLPVTCLYLIYLIYVMASGNGPF | 50300
LLGLYMKMRFRTQEDFWRQIAILLRDLFVPDLQAETVVFFMRLLYNSNSMYKH | 24100
ILQNDLKFDQILESSYNNSNHTVSKFKVSHYVEESGLLDILMQRYGLTAEDFE | 57600
